Experimental data from IntAct's records for PubMed 22072710.

B1: Bone marrow stromal antigen 2 (Homo sapiens), Q10589 (parent)
chain: MASTSYDYCRVPMEDGDKRCKLLLGIGILVLLIIVILGVPLIIFTIKANSEACRDGLRAVMECRNVTHLLQQELTEAQKGFQDVEAQAATCNHTVMALMASLDAEKAQGQKKVEELEGEITTLNHKLQDASAEVERLRRENQVLSVRIADKKYYPSSQDSSSAAAPQLLIVLLGLSALLQ
partner: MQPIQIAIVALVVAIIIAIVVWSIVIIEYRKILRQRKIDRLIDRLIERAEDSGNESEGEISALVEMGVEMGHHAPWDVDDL
B2: Protein Vpu (Human immunodeficiency virus type 1 group M subtype B (isolate BH10) (HIV-1)), P69699 (parent)
chain: B1 partner

Variants of: B1
Conditions: with vpu_hv1b1 vpu, P69699

| Variant | effect of a mutation on the interaction |
| --- | --- |
| I34A | disrupting interaction |
| I26A | decreasing interaction |
| L41A | disrupting interaction |
| L37A | disrupting interaction |
| L24I;T45I | disrupting interaction strength |

Variants of: B2
Conditions: with bst2_human BST2, Q10589

| Variant | effect of a mutation on the interaction |
| --- | --- |
| A10F;A14F;A18F | decreasing interaction |
| W22A | decreasing interaction |
| A14F | decreasing interaction |

Variants of: B2
Conditions: with bst2_human BST2, Q10589
Remark: another data set of the same source

| Variant | effect of a mutation on the interaction |
| --- | --- |
| A10F;A14F;A18F | disrupting interaction |
